The text below walks through data of paper PMC4911086 (PLoS ONE, 2016).

One experiment addresses RANKL (Homo sapiens) (UniProt O14788). The conditions noted are these: cited from earlier work.
The target of a further experiment is T1, recombinant human RANK (human, UniProt Q9Y6Q6 30-212).
T1 construct: human RANK, recombinant, R&D Systems cat# 683-RK; The vendor's product 683-RK is, as far as I recall, an Fc chimera of the RANK extracellular domain (human IgG1 Fc, C-terminal); also called rRANK; source: bought: R&D Systems (cat# 683-RK)
T1 sequence (looked up): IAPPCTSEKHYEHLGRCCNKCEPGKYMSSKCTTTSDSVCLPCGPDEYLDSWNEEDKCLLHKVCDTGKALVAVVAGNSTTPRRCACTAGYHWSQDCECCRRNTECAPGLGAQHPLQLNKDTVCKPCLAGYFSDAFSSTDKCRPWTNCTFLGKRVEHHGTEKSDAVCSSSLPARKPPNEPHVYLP
The experiment can be described thus: ELISA; polyvinyl 96-well plates coated with 500 ng/well recombinant human RANK; RANKL (500 ng/mL in PBS-T with 0.1% BSA) pre-incubated with serially diluted GM-0111 for about 16 hrs at 4°C, then 1 hr at 37°C on the RANK-coated wells; bound RANKL detected with anti-RANKL antibody and HRP-conjugated anti-goat IgG, absorbance at 450 nm. The conditions noted are these: both partners purified.

For orientation: Kd means the free concentration of one partner at which half of the binding sites on the other are occupied at equilibrium, for simple one-to-one binding. Regarding OPG (from UniProt O00300), the Kd in the experiment with RANKL (Homo sapiens) is 4.24 nM.

B1: recombinant human RANKL (ligand, UniProt O14788 140-317, looked up)
chain: IRAEKAMVDGSWLDLAKRSKLEAQPFAHLTINATDIPSGSHKVSLSSWYHDRGWAKISNMTFSNGKLIVNQDGFYYLYANICFRHHETSGDLATEYLQLMVYVTKTSIKIPSSHTLMKGGSTKYWSGNSEFHFYSINVGGFFKLRSGEEISIEVSNPSLLDPDQDATYFGAFKVRDID
notes: The vendor's product is, as far as I recall, a soluble extracellular fragment of human RANKL; also called rRANKL; source: bought: R&D Systems (cat# 390-TN)
As for B1, the binding result with recombinant human RANK is given as “binds”.
